The source of these data is PMC10673995, “Discovery of a novel cardiac-specific myosin modulator using artificial intelligence-based virtual screening” (Nature Communications, 2023).

In the assay the target is Rabbit skeletal F-actin (rabbit), P68135.

B1: bovine β-cardiac myosin S1, Q9BE39 1-1935; P85100 1-199 (domain or fragment)
heavy: MVDAEMAAFGEAAPYLRKSEKERLEAQTRPFDLKKDVFVPDDKEEFVKATILSREGGKVTAETEHGKTVTVKEDQVLQQNPPKFDKIEDMAMLTFLHEPAVLYNLKERYASWMIYTYSGLFCVTINPYKWLPVYNAEVVAAYRGKKRSEAPPHIFSISDNAYQYMLTDRENQSILITGESGAGKTVNTKRVIQYFAVIAAIGDRSKKEQATGKGTLEDQIIQANPALEAFGNAKTVRNDNSSRFGKFIRIHFGATGKLASADIETYLLEKSRVIFQLKAERDYHIFYQILSNKKPELLDMLLITNNPYDYAFISQGETTVASIDDAEELMATDNAFDVLGFTTEEKNSMYKLTGAIMHFGNMKFKLKQREEQAEPDGTEEADKSAYLMGLNSADLLKGLCHPRVKVGNEYVTKGQNVQQVVYAKGALAKAVYERMFNWMVTRINATLETKQPRQYFIGVLDIAGFEIFDFNSFEQLCINFTNEKLQQFFNHHMFVLEQEEYKKEGIEWEFIDFGMDLQACIDLIEKPMGIMSILEEECMFPKATDMTFKAKLFDNHLGKSSNFQKPRNIKGKPEAHFSLIHYAGTVDYNIIGWLQKNKDPLNETVVDLYKKSSLKMLSSLFANYAGFDTPIEKGKGKAKKGSSFQTVSALHRENLNKLMTNLRSTHPHFVRCIIPNETKSPGVIDNPLVMHQLRCNGVLEGIRICRKGFPNRILYGDFRQRYRILNPAAIPEGQFIDSRKGAEKLLGSLDIDHNQYKFGHTKVFFKAGLLGLLEEMRDERLSRIITRIQAQSRGVLSRMEFKKLLERRDSLLIIQWNIRAFMGVKNWPWMKLYFKIKPLLKSAETEKEIALMKEEFGRLKEALEKSEARRKELEEKMVSLLQEKNDLQLQVQAEQDNLADAEERCDQLIKNKIQLEAKVKEMTERLEDEEEMNAELTAKKRKLEDECSELKRDIDDLELTLAKVEKEKHATENKVKNLTEEMAGLDEIIAKLTKEKKALQEAHQQALDDLQAEEDKVNTLTKAKVKLEQHVDDLEGSLEQEKKVRMDLERAKRKLEGDLKLTQESIMDLENDKQQLDERLKKKDFELNALNARIEDEQALGSQLQKKLKELQARIEELEEELEAERTARAKVEKLRSDLSRELEEISERLEEAGGATSVQIEMNKKREAEFQKMRRDLEEATLQHEATAAALRKKHADSVAELSEQIDNLQRVKQKLEKEKSEFKLELDDVTSNMEQIIKAKANLEKMCRTLEDQMNEHRSKAEETQRSVNDLTSQRAKLQTENGELSRQLDEKEALISQLTRGKLTYTQQLEDLKRQLEEEVKAKNALAHALQSARHDCDLLREQYEEETEAKAELQRVLSKANSEVAQWRTKYETDAIQRTEELEEAKKKLAQRLQDAEEAVEAVNAKCSSLEKTKHRLQNEIEDLMVDVERSNAAAAALDKKQRNFDKILAEWKQKYEESQSELESSQKEARSLSTELFKLKNAYEESLEHLETFKRENKNLQEEISDLTEQLGSSGKTIHELEKVRKQLEAEKLELQSALEEAEASLEQEEGKILRAQLEFNQIKAEMERKLAEKDEEMEQAKRNHLRVVDSLQTSLDAETRSRNEALRVKKKMEGDLNEMEIQLSHANRLAAEAQKQVKSLQSLLKDTQIQLDDAVRANDDLKENIAIVERRNNLLQAELEELRAVVEQTERSRKLAEQELIETSERVQLLHSQNTSLINQKKKMEADLSQLQTEVEEAVQECRNAEEKAKKAITDAAMMAEELKKEQDTSAHLERMKKNMEQTIKDLQHRLDEAEQIALKGGKKQLQKLEARVRELENELEAEQKRNAESVKGMRKSERRIKELTYQTEEDRKNLLRLQDLVDKLQLKVKAYKRQAEEAEEQANTNLSKFRKVQHELDEAEERADIAESQVNKLRAKSRDIGTKGLNEE
light: not shown
B1: the F-actin concentration dependence of the steady-state ATPase activity of bovine β-cardiac myosin S1 (NADH-coupled assay), Kapp in the absence and in the presence of 100 μmol/L F10 came to 20 µmol/L.
